From patent US20100273979A1

What was measured:
[1] = biological target: human serum albumin (human), P02768; test: SPR (Biacore2000), HSA immobilised on CM-5, analyte injected at 25 nM; qualitative
[2] = biological target: mouse serum albumin (mouse), P07724; test: SPR (Biacore2000), MSA immobilised on CM-5, analyte injected at 25 nM; qualitative
[3] = biological target: human serum albumin (human), P02768; test: SPR (Biacore2000), HSA immobilised (450 RU), analyte 4-400 nM

Sequence of mouse serum albumin (mouse), P07724 (P07724 25-608 limits assumed): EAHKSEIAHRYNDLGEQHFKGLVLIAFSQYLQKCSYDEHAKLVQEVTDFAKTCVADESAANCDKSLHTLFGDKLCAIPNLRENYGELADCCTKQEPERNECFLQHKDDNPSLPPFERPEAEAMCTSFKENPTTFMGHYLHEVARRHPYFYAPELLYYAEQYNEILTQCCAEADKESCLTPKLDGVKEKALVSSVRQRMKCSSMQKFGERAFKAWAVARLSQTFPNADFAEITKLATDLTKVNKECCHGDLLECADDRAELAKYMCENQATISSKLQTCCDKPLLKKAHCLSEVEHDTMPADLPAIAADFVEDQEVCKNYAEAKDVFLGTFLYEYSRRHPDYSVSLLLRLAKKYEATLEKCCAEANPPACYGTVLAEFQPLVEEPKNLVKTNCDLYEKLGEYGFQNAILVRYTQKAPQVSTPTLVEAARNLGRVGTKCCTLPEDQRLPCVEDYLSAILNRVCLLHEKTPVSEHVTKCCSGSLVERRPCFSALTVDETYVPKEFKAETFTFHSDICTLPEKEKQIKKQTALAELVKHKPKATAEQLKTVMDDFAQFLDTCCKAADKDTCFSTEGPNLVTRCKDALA

B1: His6-tagged ABDwt (albumin binding domain GA3 of protein G from Streptococcus strain G148, expressed from pAY442) (peptide)
chain: LAEAKVLANRELDKYGVSDYYKNLINNAKTVEGVKALIDEILAALP
modifications: not checked
Q: B1 was tested. Which Kd [1] did it give?
A: 1.5 nM

Q: What about the Kd [2] of the same binder?
A: 4.9 nM

Q: What about the Kd [3] of the same binder?
A: 1.2 nM

Q: What about the koff [3] of the same binder?
A: 0.00065 s⁻¹

Q: And the kon [3]?
A: 550000 M⁻¹ s⁻¹
